Results from patent US20130143299A1.

Molecular target: human Erk2 (extracellular signal-regulated kinase 2), purchased from Sigma (human), P28482
Test: ELISA, purified clone 500 ng/well on immobilised antigen, anti-FLAG-HRP detection

Sequence of human Erk2 (extracellular signal-regulated kinase 2), purchased from Sigma (human), P28482 (P28482 whole entry): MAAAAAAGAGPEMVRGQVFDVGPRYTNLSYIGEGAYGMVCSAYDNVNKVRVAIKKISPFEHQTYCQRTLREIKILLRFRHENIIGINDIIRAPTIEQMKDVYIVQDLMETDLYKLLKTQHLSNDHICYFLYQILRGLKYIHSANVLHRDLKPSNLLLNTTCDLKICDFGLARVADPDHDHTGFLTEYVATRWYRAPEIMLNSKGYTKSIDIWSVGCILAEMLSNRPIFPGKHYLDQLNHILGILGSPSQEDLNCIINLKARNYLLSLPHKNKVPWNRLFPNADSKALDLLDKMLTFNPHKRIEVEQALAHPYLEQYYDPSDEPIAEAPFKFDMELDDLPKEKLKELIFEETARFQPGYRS

- ELISA (S/N): 25.6 S/N
B1: Erk2-binding clone group J (RNF8-FHA domain-modified protein) (designed binder, not shown: large carriers)
chain: GEPGFFVTGDRAGGRSWCLRRVGMSAGWLLLEDGCEVTVGFGTGVTYQLVSKYLPSWFTYNHCVLKQNPEGQWTIMDNKSLTGVWLNRARLEPLRVYSIHQGDYIQLGSLREXSENAEYEYEVTEEDWETIYPCLSPKNDQMIEKN
modifications: not fully specified; X: residue not identified in the source; also: N-terminal MBP-Strep/FLAG fusion partner, sequence not given here
